Here are results for 20 sequences from the DeepSol protein solubility set.

The nature of this data set: soluble on expression in E. coli; label from the status in PepcDB or PDB records.
As to “MMLSLNNLQNIIYNPVIPYVGTIPDQLDPGTLIVICGHVPSDADRFQVDLQNGSSVKPRADVAFHFNPRFKRAGCIVCNTLINEKWGREEITYDTPFKREKSFEIVIMVLKDKFQVAVNGKHTLLYGHRIGPEKIDTLGIYGKVNIHSIGFSFSSDLQSTQASSLELTEISRENVPKSGTPQLSLPFAARLNTPMGPGRTVVVKGEVNANAKSFNVDLLAGKSKDIALHLNPRLNIKAFVRNSFLQESWGEEERNITSFPFSPGMYFEMIIYCDVREFKVAVNGVHSLEYKHRFKELSSIDTLEINGDIHLLEVRSW”, the “soluble on expression in E. coli” value is reported as “soluble”.

“MMNEKILIVDDQYGIRILLNEVFNKEGYQTFQAANGLQALDIVTKERPDLVLLDMKIPGMDGIEILKRMKVIDENIRVIIMTAYGELDMIQESKELGALTHFAKPFDIDEIRDAVKKYLPLKSN”: the “soluble on expression in E. coli” value is on record as “soluble”.

Consider “MMNTNTTNNTVLLFTFNNIQGRGLQTAIEQNLEKPVLLTQGADVNLPSTRDEHYVAIVDSSLPELPEVKQTLSELEHVDATVLVNAEPNLRIESLLTWSNLKGLFYFEDDFDKVMMGLKGILNGENWLSRDILN”, for which the “soluble on expression in E. coli” value is “not soluble”.

For “MMSAPKITFIGAGSTIFVKNILGDVFHREALKTAHIALMDIDPTRLEESHIVVRKLMDSAGASGKITCHTQQKEALEDADFVVVAFQIGGYEPCTVTDFEVCKRHGLEQTIADTLGPGGIMRALRTIPHLWQICENMTEVCPDATMLNYVNPMAMNTWAMYARYPYIKQVGLCHSVQGTAEELARDLNIDPATLRYRCAGINHMAFYLELERKTADGSYVNLYPELLAAYEAGQAPKPNIHGNTRCQNIVRYEMFKKLGYFVTESSEHFAEYTPWFIKLGREDLIERYKVPLDEYPKRCVEQLANWHKELEEYKNASRIDIKPSREYASTIMNAIWTGEPSVIYGNVRNDGLIDNLPQGCCVEVACLVDANGIQPTKVGTLPSHLAALMQTNINVQTLLTEAILTENRDRVYHAAMMDPHTAAVLGIDEIYALVDDLIAAHGDWLPSWLHR”, the “soluble on expression in E. coli” value was “not soluble”.

With “MMSESNKQQAVNKLTEIVANFTAMISTRMPDDVVDKLKQLKDAETSSMGKIIYHTMFDNMQKAIDLNRPACQDTGEIMFFVKVGSRFPLLGELQSILKQAVEEATIKAPLRHNAVEIFDEVNTGKNTGSGVPWVTWDIVPDGDDAEIEVYMAGGGCTLPGRSKVLMPSEGYEGVVKFVFENISTLAVNACPPVLVGVGIATSVETAAVLSRKAILRPIGSRHPNPKAAELELRLEEGLNRLGIGPQGLTGNSSVMGVHIESAARHPSTIGVAVSTGCWAHRRGTLLVHADLTFENLSHTRSAL”, the “soluble on expression in E. coli” value is “not soluble”.

With “MMSVPVMADEGTKWDWPLQKGDGVVNVLDDDDHFEVGLEAHNFLPKEIEVKNIGELLEIHMEHNVKKDSFGDVSRNITRCYKLPKNVDMKTIKSNLDSHGILHIEARKMH”, the “soluble on expression in E. coli” value is on record as “not soluble”.

Turning to “MMTTIVMESTTEKVCEASSDACPKLETMFDATPQIVEIDGCQDITCPGNAVPYLVATFPASEIEPFYPMDVVNPFNVIPPSTISGSVIDYYGKICDGGVWKFTKYPDGIHVNDSDTIMGEDGSLTGKKSTLLVVTWYGFC”, the “soluble on expression in E. coli” value is “not soluble”.

As to “MNAERCEFIAGNSLIEVIPSISDDRPIHLISGDIGPFEAGVPCRIPVWTAILMKRKHNCKVVAPQWMDVDELKKILTSETESQGLAKLPDHFFEISHMLVRDAREDIFEVEAVKSLVQDIYDRRDAKLRSSAIEFLRQNQTCHAQLDNVQLIEASSARATLEACRQMGAVVRNKHESTPL”, the “soluble on expression in E. coli” value is recorded as “not soluble”.

“MNAFFTRALKPGARPLDETPGAILCPADGAVSQLGPIEHGRIFQAKGHGFSAQELLGGDPAMAAPFMGGEFATIYLSPKDYHRVHMPLAGTLREMVYVPGRLFSVNQTTAENVPELFARNERVVCLFDTERGPMAVVLVGAMIVASIETVWAGLVTPPKRELKTFRYDEASRTPIHLEKGAELGRFKLGSTAIVLFGPEQVKWAESLGAGSAVRMGQQLAAPAQALEHHHHHH”: the “soluble on expression in E. coli” value was “not soluble”.

As to “MNAGSDPVVIVSAARTIIGSFNGALAAVPVQDLGSTVIKEVLKRATVAPEDVSEVIFGHVLAAGCGQNPVRQASVGAGIPYSVPAWSCQMICGSGLKAVCLAVQSIGIGDSSIVVAGGMENMSKAPHLAYLRTGVKIGEMPLTDSILCDGLTDAFHNCHMGITAENVAKKWQVSREDQDKVAVLSQNRTENAQKAGHFDKEIVPVLVSTRRGLIEVKTDEFPRHGSNIEAMSKLKPYFLTDGTGTVTPANASGINDGAAAVVLMKKSEADKRGLTPLARIVSWSQVGVEPSIMGIGPIPAIKQAVTKAGWSLEDVDIFEINEAFAAVSAAIVKELGLNPEKVNIEGGAIALGHPLGASGCRILVTLLHTLERMGRSRGVAALCIGGGMGIAMCVQRE”, the “soluble on expression in E. coli” value is “soluble”.

Turning to “MNALSGLQVITRRPDKRSASGVTKKCRKSLKTAPDTKTVFKGSFASHYVDKSSQVNPGTHITVRGSIHGEVSIKKMLKGSRCRTAL”, the “soluble on expression in E. coli” value is “not soluble”.

“MNAMERENTVKSVRRALQIIEIVSTKKDGLGVTEIAKQMDINKSSVYRILTTLAQYGYIEQHPETERYKLGYKFLELSSKLLDSIDLRQEAKPYLRELEKETNEVIHLVVYDQGEVIYIEKLEGTETLRMHSKVGKRAPMHCTAVGKAILAHLPPAVAAEIIDRKGLPKHTDWTITDREAFFRELETVRQNGYALDLEENEYGIRCVAVPIFDYTGGVVAAISVSGPTIRMTDDRITSLTVRMRQIGKELSARLGYRGAHSVQL”: the “soluble on expression in E. coli” value is on record as “soluble”.

As for “MNASLTPDQVSKKLKQFFSDHLPISQFMGLEIESYDGDTLILTAPLEPNINDKQTAFGGSLYNAAVMACWGMVYLKTQEENIACNQVVTEGNMKYIAPVYGRIRAICHAPDEEELANFFDHFERKGKARISLEAAIYNDACVMKIEPETKPSVKFNGQYAILKNQ”, the “soluble on expression in E. coli” value is “soluble”.

Turning to “MNASQPPPGGRLPDEVFRKITAVDQGQSTLTQSGIQGLSARTLSSEPRGDLVFQLVEIIKKPGQSLGLYLREGNGKDRSDGVFVSRFGDNSELAKYGEVMRPGDEILTINNVEVSMMSIDDVVLILSIPRRLLLRIRYSKSMRHEIISSRSRESERPVVVFHKYDDRRDSETNAPILSQPTSTANTWLGKKSRQQMEEMRNATTSSTLRTHASTSSPRNHFAPRLVNGHSHSIGVPSASTTSHDHQYQRFASEPSDSVSRTARVPPPRLASATVRRTESFNSAPGVSTSAPMYTLPRSSTAVPPPDILGSIPYSARDPLMRSSADLPYDPMTGRLSSSVPTDPLLSRSLCSPILPRTLRQANDSNKSNSLPRRRIMTGGRNVKWRNDVVSTSDLCGEESDGAISAPEYSSPPFSRLTQQQQFRLSNGSPGRTVNDIFSAAEYRNWAGPYDPRGMYGPFPPGQRATRWSHTYGEQRAPRTSSLPGRTVLAQSLVGSPVLPRHPPPIVQDRPSAVFDRYHVSPLMNRRAPLRAAGPGINVDRLSVSSLTGILYVHIVEGRGLKIPEKQKGLTEEMYCVLEVDEQHRARTGVSTIEQKFKWRETFHIDVVNATVSNFFVYSWHPQFRHKLCHKGSLKLLEAFVVDQLNDDRVFALNLEPRGQLIVRIGFHDLQAVFRRTVNPRLNGVFGISLSRLVQRERRDTPIVLTRLIQEIEKRGVDYSGLYVLCGSVEKKKMLRAELESNPLGTELAAESIPDTNVIACLIKDFLRELPEPLISPQIHGMLLEAASVALPNDVQTNRHLVLKIIDCLQLSAKNCLLLVLDHLSTVLCSSPHNGLTPTRLSLIFAPLLFFCLDTFSPYTISPTSKMAAVRTLDINQASSSLQMILSIWPSRVSELVEFFPFLLNYPTVSYSSPNPHSESGSDSPATTCQKGGVIAYVSESQC”, the “soluble on expression in E. coli” value is on record as “not soluble”.

With “MNDAVITLNGLEKRFPGMDKPAVAPLDCTIHAGYVTGLVGPDGAGKTTLMRMLAGLLKPDSGSATVIGFDPIKNDGALHAVLGYMPQKFGLYEDLTVMENLNLYADLRSVTGEARKQTFARLLEFTSLGPFTGRLAGKLSGGMKQKLGLACTLVGEPKVLLLDEPGVGVDPISRRELWQMVHELAGEGMLILWSTSYLDEAEQCRDVLLMNEGELLYQGEPKALTQTMAGRSFLMTSPHEGNRKLLQRALKLPQVSDGMIQGKSVRLILKKEATPDDIRHADGMPEININETTPRFEDAFIDLLGGAGTSESPLGAILHTVEGTPGETVIEAKELTKKFGDFAATDHVNFAVKRGEIFGLLGPNGAGKSTTFKMMCGLLVPTSGQALVLGMDLKESSGKARQHLGYMAQKFSLYGNLTVEQNLRFFSGVYGLRGRAQNEKISRMSEAFGLKSIASHATDELPLGFKQRLALACSLMHEPDILFLDEPTSGVDPLTRREFWLHINSMVEKGVTVMVTTHFMDEAEYCDRIGLVYRGKLIASGTPDDLKAQSANDEQPDPTMEQAFIQLIHDWDKEHSNE”, the “soluble on expression in E. coli” value is given as “soluble”.

Regarding “MNDAVPAGNFVPPLILHSDHGGSAMSSSAHRGRILHFLGDPAKLGDKAWEYFEDGLLWIEHGHVRALDHATYLLPQLPADLPLEEHPQRLLLPGFVDCHVHYPQLGVIASYGTQLLDWLETHTFPAEQRFADAGYAAAQAELFLDELLRHGTTTALVFGTVHAVSAEAFFQAAQKRRLRMIAGKVLMDRNAPPALCDTAASGYAESRALIERWHGNGRLQYAVTPRFAPTSSPEQLAAAARLLDEYPGVYLHTHLSENLKEVAWVGELFPQAQDYLDVYHRAGLVGERSVFAHGIHLSERECRCLAHKNAALAHCPSSNLFIGSGLFDLGRAQQYGIRVGIGSDVGGGTSLSLLANLADAYKIQQLRGTSLDPFQALYLATLGGARALDLDGLVGNFLPGREADFVALDLAATPMIAQRMEHARGLADTLFVLNTLGDDRAVAETWVMGERRHVKG”, the “soluble on expression in E. coli” value is “not soluble”.

As to “MNDGNSRTPYNSLYKPLNLIKSKPDGCCKHNGQCPYGKNQAESVDDGNSRTPYNSIYEPLSLNKSKPDSQCSNGKKPADDEYVNLLLPQSKEEQVAEKLADKLRKLEVKESKGKRRGSKERKKKKPEPVESTYESLASIEGSTNFSGPVTTESLESNVKCHHASQTAYIGVYSSADAEAQVKNRGEFALYHQFEVGNRLDHLTATLPLMLVYYTTTKKHRHYPVRKSGDNGTVQYSVDCGYPIVRKHFSINQLVLYYKTFGSIQMKQEDICSEEFSWWLE”, the “soluble on expression in E. coli” value is “not soluble”.

For “MNDLCVDLGYKSLNKFGEQLCGDMIQVVKDDDTTILVLADGLGSGVKANILSTLTSKIISTMIAAHMGIEECVNTIMSTLPVCKVRGIAYSTFTIIKITNNTYAEIIQYDNPLVILLRNGKKYDYPTQTKIISGKKIVESKIRLNCDDVFVVMSDGAIYAGVGQTLNYGWQRENIIEFIESHYDKSLSANALTSLLIDTCNNLYANMPGDDTTIAAIKIRKRQVVNLMFGPPQNPEDVHNMMSLFFAKQGRHIVCGGTTSTLAAKFLGKELETTIDYIDPRIPPIARIEGVDLVTEGVLTISRVLEYAKDYIGKNILYNEWHSKNDGASIIARMLFEEATDINFYVGKAINPAHQNPNLPIGFNIKMQLVEELSKILKQMGKTINLSYF”, the “soluble on expression in E. coli” value is “not soluble”.

With “MNDQELRAYLSQAKTIAVLGAHKDPSRPAHYVPRYLREQGYRVLPVNPRFQGEELFGEEAVASLLDLKEPVDILDVFRPPSALMDHLPEVLALRPGLVWLQSGIRHPEFEKALKEAGIPVVADRCLMVEHKRLFRGPLPL”, the “soluble on expression in E. coli” value is on record as “soluble”.

For “MNEEILPILTVKDLNAGYLTNEKYIGIIHNINIELNRGKIVGITGLSGSGKTTLLKSILLETHIKSGEIIFNGKPIMPGDTKNYRRSVIYVPQNSLDSLDIIWPIEDQVKKILKQHNVVYDINKVSEIAKLIDLDISMLKLKSFEVSYGTRHKIVLLMSILMAKRDLVVLMDEPTLSQDAITAEGILNIIVKLAKDYGSSFIIVSSSPEPVFYASDFIYIMYGGWIVENGTPNDLSKWPKHPFTYEFINMLPAHKTRDRFPKFPMTEFSENGCPYSIYCKNKIKGCDSHINMFGEGHKYRCLNPVV”, the “soluble on expression in E. coli” value was “not soluble”.
